According to US20120114652A1:
Blank lines part the entries; values can stand above or below the binder they belong to.

Key:
[1] = target: human PAI-1, active, wild-type, non-glycosylated (E. coli-derived) (human) (UniProt P05121); experiment: cell-based or functional assay
[2] = target: cynomolgus PAI-1 (cynomolgus); experiment: cell-based or functional assay
rat PAI-1 (rat) = target: T1, rat PAI-1 (rat) (UniProt P20961); experiment: cell-based or functional assay
T1 sequence: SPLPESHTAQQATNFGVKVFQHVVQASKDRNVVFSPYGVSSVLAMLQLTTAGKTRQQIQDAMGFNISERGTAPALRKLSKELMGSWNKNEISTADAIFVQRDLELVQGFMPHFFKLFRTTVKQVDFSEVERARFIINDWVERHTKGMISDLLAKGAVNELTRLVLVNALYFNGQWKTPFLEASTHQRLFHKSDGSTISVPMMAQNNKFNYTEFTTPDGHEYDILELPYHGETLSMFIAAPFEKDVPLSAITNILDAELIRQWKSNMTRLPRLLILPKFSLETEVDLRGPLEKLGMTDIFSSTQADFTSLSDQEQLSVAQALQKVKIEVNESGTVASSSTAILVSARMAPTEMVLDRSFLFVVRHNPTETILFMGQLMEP

mouse PAI-1 (mouse) = target: T2, mouse PAI-1 (mouse) (UniProt P22777); experiment: cell-based or functional assay
T2 sequence: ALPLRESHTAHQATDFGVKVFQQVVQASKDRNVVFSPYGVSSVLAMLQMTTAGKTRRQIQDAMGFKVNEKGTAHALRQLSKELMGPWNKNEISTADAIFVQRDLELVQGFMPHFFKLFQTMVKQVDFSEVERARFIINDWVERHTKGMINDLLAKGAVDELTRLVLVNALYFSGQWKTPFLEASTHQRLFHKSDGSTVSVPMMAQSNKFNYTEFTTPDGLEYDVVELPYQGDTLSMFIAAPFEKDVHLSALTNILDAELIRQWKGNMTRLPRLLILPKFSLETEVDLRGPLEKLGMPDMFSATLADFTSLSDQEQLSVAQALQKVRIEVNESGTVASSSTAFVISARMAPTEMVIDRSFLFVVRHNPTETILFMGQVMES

[3] = target: Antibody 16, IgG1, not germlined; experiment: competition binding assay: Antibody 16 IgG adsorbed to the plate, biotinylated active human PAI-1 at about its KD, dilution series of the unlabelled competitor (the varied molecule), detection with streptavidin-Europium

IC50, HT1080 plasminogen activation assay [1]: 22 nM
IC50, PAI-1:tPA functional assay [1]: 3.2 nM
pIC50, HT1080 plasminogen activation assay [1]: 7.65
IC50, PAI-1:tPA functional assay [2]: 1.02 nM
IC50, HT1080 plasminogen activation assay (rat PAI-1 (rat)): 49 nM
IC50, PAI-1:tPA functional assay (rat PAI-1 (rat)): 2.98 nM
pIC50, HT1080 plasminogen activation assay (rat PAI-1 (rat)): 7.31
IC50, HT1080 plasminogen activation assay (mouse PAI-1 (mouse)): 25 nM
pIC50, HT1080 plasminogen activation assay (mouse PAI-1 (mouse)): 7.6
B1: PICK167_A01 scFv (scFv)
scFv: QVQLQQSGAEVKKPGSSVKVSCKASGGTFSSYAISWVRQAPGQRLEWMGGIIPTFGTANYAQKFQGRVTITADESTSTAYMELSGLRSEDTAVYYCARERRQWLEGHFDYWGRGTPVTVSSGGGGSGGGGSGGGGSDIQMTQSPSFLSASIGDRVTITCRASEGIYHNLAWYQQKPGKAPKLLIYKASSLASGAPSRFSGSRSGTDFTLTISSLQPDDFATYYCQQYSNYPLTFGGGTKLEIKR

IC50 (read off the curve) [3]: 2 nM
B2: rat PAI-1 (protein)
chain: T1 sequence

IC50 (read off the curve) [3]: 5 nM
B3: mouse PAI-1 (protein)
chain: T2 sequence
